Reference: publication PMC7016264, “Redox requirements for ubiquitin-like urmylation of Ahp1, a 2-Cys peroxiredoxin from yeast” (Redox Biology, 2020)

B1: His-tagged Ahp1, wild-type (recombinant) [S. cerevisiae] / itself (parent)
chain: MSDLVNKKFPAGDYKFQYIAISQSDADSESCKMPQTVEWSKLISENKKVIITGAPAAFSPTCTVSHIPGYINYLDELVKEKEVDQVIVVTVDNPFANQAWAKSLGVKDTTHIKFASDPGCAFTKSIGFELAVGDGVYWSGRWAMVVENGIVTYAAKETNPGTDVTVSSVESVLAHL

Variants of: B1
Assay: SEC-MALS
Settings: with itself

Variant | screen value
MSDLVNKKFPAGDYKFQYIAISQSDADSESCKMPQTVEWSKLISENKKVIITGAPAAFSPTCTVSHIPGYINYLDELVKEKEVDQVIVVTVDNPAANQAWAKSLGVKDTTHIKFASDPGCAFTKSIGFELAVGDGVYWSGRWAMVVENGIVTYAAKETNPGTDVTVSSVESVLAHL | 31.6 kDa
MSDLVNKKFPAGDYKFQYIAISQSDADSESCKMPQTVEWSKLISENKKVIITGAPAAASPTCTVSHIPGYINYLDELVKEKEVDQVIVVTVDNPFANQAWAKSLGVKDTTHIKFASDPGCAFTKSIGFELAVGDGVYWSGRWAMVVENGIVTYAAKETNPGTDVTVSSVESVLAHL | 22.8 kDa
MSDLVNKKFPAGDYKFQYIAISQSDADSESCKMPQTVEWSKLISENKKVIITGAPAAASPTCTVSHIPGYINYLDELVKEKEVDQVIVVTVDNPAANQAWAKSLGVKDTTHIKFASDPGCAFTKSIGFELAVGDGVYWSGRWAMVVENGIVTYAAKETNPGTDVTVSSVESVLAHL | 20.4 kDa
